Residue numbers refer to the chain shown, from its start. Where two headings read alike, the source gives them in different places.

Assay [1] addresses human CLDN18.2 (human), P56856. The experiment in a line: cell-based or functional assay.
The target of assay [2] is human CLDN18.2 (human) (UniProt P56856). The experiment in a line: KinExA, antibody titrated with hCLDN18.2+ cells.
For assay [3] the target is unchanged. The experiment in a line: flow cytometry, CF488 labeled antibody 1 µg/ml, hCLDN18.2+ cells. On the technique in general: A flow cytometer gives signals particle by particle.
Assay [4] shares this target. The assay is described as follows: flow cytometry, CF633 labeled antibody 10 µg/ml, hCLDN18.2+ cells.
Assay [5] has the same target. The assay is described as follows: flow cytometry, CF633 labeled antibody 1 µg/ml, hCLDN18.2+ cells.
For assay [6] the target is unchanged. The assay is described as follows: flow cytometry, CF488, 10 µg/ml.
Assay [7] shares this target. The assay is described as follows: cell-based or functional assay.
Assay [8] has the same target. The experiment in a line: cell ELISA, hCLDN18.2+ cells. In general terms: In an ELISA, binding on a coated surface is turned into a signal by an enzyme label.
Assay [9] has the same target. The experiment in a line: flow cytometry, CF488 labeled antibody 10 µg/ml, hCLDN18.2+ cells.
A further assay has as its target mice CLDN18.2 (mice) (UniProt P56857). The experiment in a line: cell ELISA, mCLDN18.2+ cells.
For assay [10], the target named is human CLDN18.2 (human) (UniProt P56856). The assay is described as follows: flow cytometry, CF633, 10 µg/ml.
Assay [11] has the same target. The assay is described as follows: flow cytometry, CF633, 1 µg/ml.
Assay [12] shares this target. The assay is described as follows: cell ELISA, hCLDN18.2+ cells. This is another data set of the same source.

B1: CAR1a (CAR with Ab10 scFv) (protein)
chain: DIVMTQSPDSLAVSLGERATISCKSSQSLLNSGNQKNYLTWYQQKPGQPPKLLIYWASTRESGVPDRFSGSGSGTDFTLTISSLQAEDVAVYYCQNDYFYPFTFGQGTKLEIKGGGGSGGGGSGGGGSQVQLVQSGAEVKKPGSSVKVSCKASGYAFSNYLIEWVKQAPGQGLEWIGLINPGSGGTNYNEKFKGKATITADKSTSTAYMELSSLRSEDTAVYYCARVYYGNSFAYWGQGTLVTVSSTTTPAPRPPTPAPTIASQPLSLRPEACRPAAGGAVHTRGLDFACDIYIWAPLAGTCGVLLLSLVITLYCKRGRKKLLYIFKQPFMRPVQTTQEEDGCSCRFPEEEEGGCELRVKFSRSADAPAYKQGQNQLYNELNLGRREEYDVLDKRRGRDPEMGGKPRRKNPQEGLYNELQKDKMAEAYSEIGMKGERRRGKGHDGLYQGLSTATKDTYDALHMQALPPR
In [1], B1 returned a specific killing rate of target cells, %, CART1a, 1:1 of 19.1%; a specific killing rate of target cells, %, CART1a, 3:1 of 18.3%; a specific killing rate of target cells, %, CART1a, 10:1 of 32.2%; a specific killing rate of target cells, %, CART1a, 20:1 of 34.8%. In [1], this molecule returned a specific killing rate of target cells, %, CART3a, 1:1 of 3.9%; a specific killing rate of target cells, %, CART3a, 3:1 of 3.1%; a specific killing rate of target cells, %, CART3a, 10:1 of 21.8%; a specific killing rate of target cells, %, CART3a, 20:1 of 24.3%. In addition, in [1], the specific killing rate of target cells, %, CART3ab10, 1:1 stood at 0%; the specific killing rate of target cells, %, CART3ab10, 3:1 is 0%; the specific killing rate of target cells, %, CART3ab10, 10:1 stood at 12.2%; the specific killing rate of target cells, %, CART3ab10, 20:1 worked out at 21.2%. For the same molecule, in assay [1], the specific killing rate of target cells, %, CART4a, 1:1 stood at 0%; the specific killing rate of target cells, %, CART4a, 3:1 was determined as 1.2%; the specific killing rate of target cells, %, CART4a, 10:1 was 8.8%; the specific killing rate of target cells, %, CART4a, 20:1 turned out to be 19.8%.

B2: Ref (control anti-human CLDN18.2 antibody) (antibody, INN chains, looked up, V domains shown)
VH: QVQLQQPGAELVRPGASVKLSCKASGYTFTSYWINWVKQRPGQGLEWIGNIYPSDSYTNYNQKFKDKATLTVDKSSSTAYMQLSSPTSEDSAVYYCTRSWRGNSFDYWGQGTTLTVSS
VL: DIVMTQSPSSLTVTAGEKVTMSCKSSQSLLNSGNQKNYLTWYQQKPGQPPKLLIYWASTRESGVPDRFTGSGSGTDFTLTISSVQAEDLAVYYCQNDYSYPFTFGSGTKLEIKR
Broadly, the Kd is the free concentration of one partner at which half of the binding sites on the other are occupied at equilibrium, for simple one-to-one binding. High values mean lower affinity, low ones higher affinity. What is called EC50 is the midpoint of the concentration-response curve. A low value points to a more potent agent. In the assay with human CLDN18.2 (human) [2], B2 had a Kd of 0.144 nM. In addition, the Binding value (FACS fluorescence intensity) in the assay with human CLDN18.2 (human) [3] came to 1940. In the assay with human CLDN18.2 (human) [4], this molecule gave a Binding value (FACS fluorescence intensity) of 198. This molecule also registered a Binding value (FACS fluorescence intensity) with human CLDN18.2 (human) [5] of 62.5. The molecule also gave a binding value, times higher than the background in the assay with human CLDN18.2 (human) [6] of 4 times. In the assay with human CLDN18.2 (human) [7], the ADCC activity, EC50 stood at 1.39 µg/mL; the CDC activity, EC50 stood at 2.31 µg/mL; the inducing the apoptosis of tumor cells at 10 µg/ml (LDH release) came out at 15.3%; the inducing the apoptosis of tumor cells at 30 µg/ml (LDH release) came out at 19.6%. In addition, in the assay with human CLDN18.2 (human) [7], the inhibition rate % of proliferation, 1 µg/ml (CCK-8) was 2.34%; the inhibition rate % of proliferation, 10 µg/ml (CCK-8) worked out at 2.94%; the inhibition rate % of proliferation, 30 µg/ml (CCK-8) came to 3.9%. Further, in the assay with human CLDN18.2 (human) [8], the concentration for a half-maximal effect (EC50) is 0.345 nM and the Emax is 0.98. Moreover, the Binding value (FACS fluorescence intensity) with human CLDN18.2 (human) [9] was determined as 17900. In addition, in the assay with mice CLDN18.2 (mice), the EC50 turned out to be 1.04 nM and the Emax was determined as 1. The binding value, times of the background in the assay with human CLDN18.2 (human) [10] came to 8.5 times. The binding value, ratio to the background in the assay with human CLDN18.2 (human) [11] was determined as 2.7. Further, in the assay with human CLDN18.2 (human) [12], the EC50 worked out at 0.249 nM and the Emax is 1.41.

B3: Ab51 (antibody, IgG1, V domains shown)
VL: DIVMTQSPDSLAVSLGERATINCKSSQSLLNTGNNKNYLAWYQQKPGQPPKLLIYWASTRESGVPDRFSGSGSGTDFTLTISSLQAEDVAVYYCQNDYFYPFTFGQGTKLEIK
VH: QVQLVQSGAEVKKPGSSVKVSCKASGYAFSNYLIEWVRQAPGQGLEWMGLINPGSGGTNYNEKFKGRVTITADESTSTAYMELSSLRSEDTAVYYCARVYYGNTFAYWGQGTLVTVSS
In the case of B3, the CDC activity, EC50 in [1] was 2.12 µg/mL.

B4: Ab28 (antibody, V domains shown)
VH: B3 VH with R67K, E74K, T104S
VL: B3 VL
In the assay with human CLDN18.2 (human) [12], B4 had an EC50 of 0.154 nM and an Emax of 1.56.

B5: Ab34 (antibody, V domains shown)
VH: B3 VH with R67K, E74K
VL: B3 VL with N22S, T32S
In the assay with human CLDN18.2 (human) [12], B5 yielded an EC50 of 0.151 nM and an Emax of 1.42.

B6: Ab32 (antibody, V domains shown)
VH: B3 VH with R67K, E74K
VL: B3 VL with T32S
In the assay with human CLDN18.2 (human) [12], B6 had an EC50 of 0.197 nM and an Emax of 1.41.

B7: Ab22 (antibody, V domains shown)
VH: B3 VH with R67K, E74K
VL: B3 VL with N31T, T32S
On to B7, for which, in the assay with human CLDN18.2 (human) [12], the EC50 stood at 1.37 nM and the Emax is 0.827.

B8: Ab30 (antibody, V domains shown)
VH: B3 VH with R67K, E74K
VL: B3 VL with N22S, T32S, N35Q, A40T
For B8, in the assay with human CLDN18.2 (human) [12], the EC50 was determined as 11.4 nM and the Emax came out at 0.67.

B9: Ab51 (antibody, IgG1, V domains shown)
VH: B3 VH
VL: B3 VL
Consider B9, for which, in the assay with mice CLDN18.2 (mice), the EC50 worked out at 0.474 nM and the Emax came to 1.91.

B10: Ab23 (antibody, V domains shown)
VH: B3 VH with R67K, E74K, N103T, T104S
VL: B3 VL
In the assay with human CLDN18.2 (human) [12], B10 displayed an EC50 of over 40 nM and an Emax of 0.147.

B11: Ab21 (antibody, V domains shown)
VH: B3 VH with R67K, E74K, N103T, T104S
VL: B3 VL with N31T, T32S
In the assay with human CLDN18.2 (human) [12], B11 showed an EC50 of over 16 nM and an Emax of 0.145.

Source of the values: patent US20210230272A1.
